B1: Mycobacterium tuberculosis proteasomal ATPase Mpa, full-length (1–609) (enzyme)
chain: MGESERSEAFGIPRDSPLSSGDAAELEQLRREAAVLREQLENAVGSHAPTRSARDIHQLEARIDSLAARNSKLMETLKEARQQLLALREEVDRLGQPPSGYGVLLATHDDDTVDVFTSGRKMRLTCSPNIDAASLKKGQTVRLNEALTVVEAGTFEAVGEISTLREILADGHRALVVGHADEERVVWLADPLIAEDLPDGLPEALNDDTRPRKLRPGDSLLVDTKAGYAFERIPKAEVEDLVLEEVPDVSYADIGGLSRQIEQIRDAVELPFLHKELYREYSLRPPKGVLLYGPPGCGKTLIAKAVANSLAKKMAEVRGDDAHEAKSYFLNIKGPELLNKFVGETERHIRLIFQRAREKASEGTPVIVFFDEMDSIFRTRGTGVSSDVETTVVPQLLSEIDGVEGLENVIVIGASNREDMIDPAILRPGRLDVKIKIERPDAEAAQDIYSKYLTEFLPVHADDLAEFDGDRSACIKAMIEKVVDRMYAEIDDNRFLEVTYANGDKEVMYFKDFNSGAMIQNVVDRAKKNAIKSVLETGQPGLRIQHLLDSIVDEFAENEDLPNTTNPDDWARISGKKGERIVYIRTLVTGKSSSASRAIDTESNLGQYL
notes: Mpa (mycobacterial proteasome ATPase), Mycobacterium tuberculosis, full-length, residues 1-609; Homohexamer; In the cryo-EM model the coiled-coil domains and two of the six AAA domains are not resolved; also called mycobacterial proteasome ATPase; WT Mpa

Experiments:
[1] = biological target: Mycobacterium tuberculosis proteasomal ATPase Mpa, full-length (1–609) (Mycobacterium tuberculosis) (UniProt P9WQN5); assay: not stated; stoichiometry of the in vitro assembled Pup–FabD:Mpa complex; how it was found is not told
cryo-EM structure = biological target: the molecule itself; assay: cryo-EM structure

Row | Molecule | stoichiometry N (Pup–FabD per Mpa hexamer) [1] | stoichiometry N (cryo-EM structure)
1 | Pup–FabD (Pup translationally fused to the N terminus of malonyl CoA-acyl carrier protein transacylase) | 1 | –
2 | B1 | – | 6

From PMC8142254, “The mycobacterial proteasomal ATPase Mpa forms a gapped ring to engage the 20S proteasome” (The Journal of Biological Chemistry, 2021)
